Laboratory results from PMC11367651.

Tests used:
Conditions in all cases: reference: unphosphorylated MAP2c; sites Y67
[1] = molecular target: Grb2 (growth factor receptor-bound protein 2) SH2 domain, 57-158 (UniProt P62993); test: NMR HNCO peak broadening of labeled MAP2c
[2] = molecular target: Grb2 (growth factor receptor-bound protein 2) SH2 domain, 57-158 (UniProt P62993); test: NMR HNCO chemical shift perturbation of MAP2c
[3] = molecular target: Grb2 (growth factor receptor-bound protein 2) SH2 domain, 57-158 (UniProt P62993); test: 1H,15N HSQC titration of 15N-Grb2-SH2 with MAP2c

For “MAP2c (microtubule-associated protein 2c) (from UniProt P15146) Fyn-phosphorylated MAP2c”, the “binding against the reference” value [1] was “stronger”, the “binding against the reference” value [2] was “gained” and the KD [3] was “gained; reference No significant CCSP”.
